# Reference: US20230277593A1
# Experiments:
# [1] = biological target: HLA-A*02 on target cells (human); assay: cell-based or functional assay
# [2] = biological target: Epidermal Growth Factor Receptor (EGFR) on target cells (human), P00533; assay: cell-based or functional assay
binder,measurement,setting,value
"HLA-A*02 PA2.1 scFv LIR1 inhibitor (C2162) (scFv, part only; not given: LIR-1 hinge, transmembrane and intracellular, part only) scFv, part: QVQLVQSGAEVKKPGSSVKVSCKASGYTFTSYHIHWVRQAPGQGLEWIGWIYPGNVNTEYNEKFKGKATITADESTNTAYMELSSLRSEDTAVYYCAREEITYAMDYWGQGTLVTVSSGGGGSGGGGSGGGGSGGDIQMTQSPSTLSASVGDRVTITCRSSQSIVHSNGNTYLEWYQQKPGKAPKLLIYKVSNRFSGVPARFSGSGSGTEFTLTISSLQPDDFATYYCFQGSHVPRTFGQGTKVEVK","Human Blocker EC50 (ng), with activator CT486; HLA-A*02 mRNA titrated into target cells",[1],4000 ng
same,"Human Blocker EC50 (ng), with activator CT487; HLA-A*02 mRNA titrated into target cells",[1],2900 ng
same,"Human Blocker EC50 (ng), with activator CT488; HLA-A*02 mRNA titrated into target cells",[1],3500 ng
same,"Human Blocker EC50 (ng), with activator CT489; HLA-A*02 mRNA titrated into target cells",[1],3200 ng
same,selectivity ratio (humanized blocker C2162 paired with CT486),[1],17
same,"selectivity ratio (humanized blocker C2162 paired with CT487, first mention)",[1],5
same,"selectivity ratio (humanized blocker C2162 paired with CT487 as printed, second mention)",[1],5
same,selectivity ratio (humanized blocker C2162 paired with CT489),[1],24.2
"CT-487 EGFR scFv CAR activator (scFv, not shown: small tags and cut ends) scFv: QVQLVQSGAEVKKPGASVKVSCKASGYTFTSHWMHWVRQAPGQGLEWIGEFNPSNGRTNYNEKFKSKATMTVDTSTNTAYMELSSLRSEDTAVYYCASRDYDYDGRYFDYWGQGTLVTVSSGGGGSGGGGSGGGGSGGDIQMTQSPSSLSASVGDRVTITCSASSSVTYMYWYQQKPGKAPKLLIYDTSNLASGVPSRFSGSGSGTDYTFTISSLQPEDIATYYCQQWSSHIFTFGQGTKVEIK",Activator EC50 (ng); EGFR mRNA titrated into EGFR negative target cells,[2],3500 ng
"HLA-A*02 PA2.1 scFv LIR1 inhibitor (C1765) (scFv, part only; not given: LIR-1 hinge, transmembrane and intracellular, part only) scFv, part: DVLMTQTPLSLPVSLGDQASISCRSSQSIVHSNGNTYLEWYLQKPGQSPKLLIYKVSNRFSGVPDRFSGSGSGTDFTLKISRVEAEDLGVYYCFQGSHVPRTSGGGTKLEIKGGGGSGGGGSGGGGSGGQVQLQQSGPELVKPGASVRISCKASGYTFTSYHIHWVKQRPGQGLEWIGWIYPGNVNTEYNEKFKGKATLTADKSSSTAYMHLSSLTSEDSAVYFCAREEITYAMDYWGQGTSVTVSS","Mouse Blocker EC50 (ng), with activator CT486; HLA-A*02 mRNA titrated into target cells",[1],4700 ng
same,"Mouse Blocker EC50 (ng), with activator CT487; HLA-A*02 mRNA titrated into target cells",[1],3500 ng
same,"Mouse Blocker EC50 (ng), with activator CT488; HLA-A*02 mRNA titrated into target cells",[1],4700 ng
same,"Mouse Blocker EC50 (ng), with activator CT489; HLA-A*02 mRNA titrated into target cells",[1],4200 ng
same,selectivity ratio (mouse blocker C1765 paired with CT486),[1],15.7
same,"selectivity ratio (mouse blocker C1765 paired with CT487, first mention)",[1],18.4
same,"selectivity ratio (mouse blocker C1765 paired with CT487 as printed, second mention)",[1],21.2
same,selectivity ratio (mouse blocker C1765 paired with CT489),[1],21.6
same,"shift of CAR EMAX (Jurkat NFAT-luciferase, with EGFR CAR CT479, HeLa target cells)",[1],> 5 fold
